Experimental data as given in patent US20060252130A1 (ACGT PREGENOMICS, published 2006).
Ends that are not written are not given here.

B1: fluorescence-marked proline-rich peptide Cys-Ser-Gly-Pro-Pro-Pro-Pro-Pro-Pro-Pro-Pro-Leu-Pro (fluorescein-maleimide label) (peptide)
peptide: C(fluorescein‑maleimide)SGPPPPPPPPLP
notes: also called fluorescence-labeled peptide; fluorescence-marked peptide
B2: synthetic proline-rich peptide Cys-Ser-Gly-Pro-Pro-Pro-Pro-Pro-Pro-Pro-Pro-Leu-Pro (peptide)
peptide: CSGPPPPPPPPLP
notes: also called CSGP8LP; proline peptide
B3: PyVP1-3C-WW[N-14] (other)
chain: MSGWTEHKSPDGRTYYYNTETKQSTWEKPDDGHMSTKACPRPAPVPKLLIKGGMEVLDLVTGPDSVTEIEAFLNPRMGQPPTPESLTEGGQYYGWSRGINLATSDTEDSPGNNTLPTWSMAKLQLPMLNEDLTCDTLQMWEAVSVKTEVVGSGSLLDVHGFNKPTDTVNTKGISTPVEGSQYHVFAVGGEPLDLQGLVTDARTKYKEEGVVTIKTITKKDMVNKDQVLNPISKAKLDKDGMYPVEIWHPDPAKNENTRYFGNYTGGTCTPPVLQFTNTLTTVLLDENGVGPLSKGEGLYLSSVDIMGWRVTRNYDVHHWRGLPRYFKITLRKRWVKNPYPMASLISSLFNNMLPQVQGQPMEGENTQVEEVRVYDGTEPVPGDPDMTRYVDRFGKTKTVFPPG
notes: The range 15-384 follows from 'N-terminus shortened by 14 amino acids'
B4: [PyVP1-3C-WW1]-intein-CBD (other)
chain: MSGWTEHKSPDGRTYYYNTETKQSTWEKPDDGHMAPKRKSGVSKSETKSTKACPRPAPVPKLLIKGGMEVLDLVTGPDSVTEIEAFLNPRMGQPPTPESLTEGGQYYGWSRGINLATSDTEDSPGNNTLPTWSMAKLQLPMLNEDLTCDTLQMWEAVSVKTEVVGSGSLLDVHGFNKPTDTVNTKGISTPVEGSQYHVFAVGGEPLDLQGLVTDARTKYKEEGVVTIKTITKKDMVNKDQVLNPISKAKLDKDGMYPVEIWHPDPAKNENTRYFGNYTGGTCTPPVLQFTNTLTTVLLDENGVGPLSKGEGLYLSSVDIMGWRVTRNYDVHHWRGLPRYFKITLRKRWVKNPYPMASLISSLFNNMLPQVQGQPMEGENTQVEEVRVYDGTEPVPGDPDMTRYVDRFGKTKTVFPPG
notes: also called (PyVP1-3C-WW1)-intein-CBD fusion protein

Assays:
[1] = biological target: T1, PyVP1-WW150 (mouse polyoma virus; Mus musculus …); test: gel filtration (TSK gel G5000PWXL), co-elution of labelled peptide with capsids and pentamers, absorption at 490 nm
T1 construct: WW domain inserted between VP1 positions 148 and 149; Soluble pentamer after intein cleavage; also called PyVP1-WW150 variant; PyVP1-WW150 protein

[2] = biological target: T1, PyVP1-WW150; test: SPR (Biacore X), peptide on CM5 chip, Dulbecco's PBS
[3] = biological target: T2, PyVP1-WW150-D8C (mouse polyoma virus; Mus musculus …); test: surface plasmon resonance; strengthened by 500 mM ammonium sulfate
T2 construct: Position 8 is counted on the WW domain itself

[4] = biological target: T1, PyVP1-WW150; test: SPR (Biacore X), peptide on CM5 chip; summary of the three analyses of example 2
[5] = biological target: T1, PyVP1-WW150; test: SPR (Biacore X), peptide on CM5 chip, 10 mM HEPES, 1 mM EDTA, 150 mM NaCl, pH 7.2, 25 C, protein 5 to 50 nM
[6] = biological target: B1; test: incubation of labelled peptide with PyVP1-3C-WW[N-14], capsid assembly, gel filtration
[7] = biological target: B2; test: affinity column with peptide, crude extract, wash with 2 M NaCl, elution with 2% SDS, SDS gel

B1
binding result [1]: binds

B2
koff [2]: 0.0018 s⁻¹ | kon [2]: 200000 M⁻¹ s⁻¹ | binding result [3]: binds | Kd [4]: 20 nM | Kd [5]: 5 nM

B3
binding result [6]: binds

B4
binding result [7]: binds
